Results on one molecule are retold here after patent publication US6479250 (Amgen, dated 2002).

For one experiment, the target named is rat Eck receptor (rat) (UniProt D3ZBN3). Kind of experiment: cell-based or functional assay.
Experiment [1] concerns the target T1, eck receptor (p130^eck), full length, on LIM 2405 cells or on CHO 19.32 cells transfected with the full … (human, UniProt P29317 24-976).
T1 construct: whole, on cells; also called EBP receptors
The experiment can be described thus: Scatchard analysis of steady-state binding of 125I-rEBP to LIM2405 cells, 0° C. The procedure:
Nonspecific binding was determined from parallel reactions containing a 50 fold excess of unlabeled EBP.

Experiment [2] concerns the target T2, eck receptor extracellular domain (eck-x), soluble, expressed in CHO cells (human, UniProt P29317 24-537).
T2 construct: extracellular domain; The construct ends at Asn534 (numbering of the eck cDNA of Lindberg et al.); Immobilized on BIAcore chips or on CNBr-Sepharose; also called soluble eck receptor; recombinant human Eck extracellular domain
Kind of experiment: BIAcore, EBP on immobilized eck-x. On the technique in general: In SPR one partner is held on a chip, and binding of the other changes the refractive index at the surface.

Where only a bound is given, the exact number is not on record here.

Chain of rat Eck receptor (rat) (D3ZBN3 entry or part of it limits assumed, form in doubt): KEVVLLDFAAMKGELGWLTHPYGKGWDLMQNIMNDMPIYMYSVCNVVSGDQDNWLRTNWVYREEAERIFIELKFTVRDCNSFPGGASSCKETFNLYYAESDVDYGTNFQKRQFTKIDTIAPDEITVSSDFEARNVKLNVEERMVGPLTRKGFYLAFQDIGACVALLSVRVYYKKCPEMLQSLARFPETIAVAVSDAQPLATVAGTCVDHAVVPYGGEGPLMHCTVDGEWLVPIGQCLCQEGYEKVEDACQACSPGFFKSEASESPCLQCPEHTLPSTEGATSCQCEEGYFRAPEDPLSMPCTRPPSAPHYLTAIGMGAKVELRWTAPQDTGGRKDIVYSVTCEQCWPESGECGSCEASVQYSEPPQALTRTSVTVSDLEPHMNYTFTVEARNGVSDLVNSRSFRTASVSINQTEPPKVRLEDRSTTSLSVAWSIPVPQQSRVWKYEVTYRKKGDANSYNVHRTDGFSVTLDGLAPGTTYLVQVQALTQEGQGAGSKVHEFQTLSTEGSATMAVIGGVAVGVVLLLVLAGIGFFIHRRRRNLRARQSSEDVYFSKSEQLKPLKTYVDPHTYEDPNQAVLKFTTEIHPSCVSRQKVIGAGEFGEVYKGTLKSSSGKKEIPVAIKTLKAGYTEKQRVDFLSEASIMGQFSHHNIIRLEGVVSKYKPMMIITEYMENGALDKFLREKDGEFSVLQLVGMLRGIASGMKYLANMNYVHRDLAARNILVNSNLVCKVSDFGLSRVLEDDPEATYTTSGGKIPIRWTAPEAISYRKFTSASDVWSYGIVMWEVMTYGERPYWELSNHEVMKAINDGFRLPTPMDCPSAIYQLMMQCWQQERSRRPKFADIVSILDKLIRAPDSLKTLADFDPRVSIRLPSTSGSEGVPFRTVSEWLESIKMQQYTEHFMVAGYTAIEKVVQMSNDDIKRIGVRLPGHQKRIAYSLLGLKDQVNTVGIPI
T1 sequence (P29317 24-976): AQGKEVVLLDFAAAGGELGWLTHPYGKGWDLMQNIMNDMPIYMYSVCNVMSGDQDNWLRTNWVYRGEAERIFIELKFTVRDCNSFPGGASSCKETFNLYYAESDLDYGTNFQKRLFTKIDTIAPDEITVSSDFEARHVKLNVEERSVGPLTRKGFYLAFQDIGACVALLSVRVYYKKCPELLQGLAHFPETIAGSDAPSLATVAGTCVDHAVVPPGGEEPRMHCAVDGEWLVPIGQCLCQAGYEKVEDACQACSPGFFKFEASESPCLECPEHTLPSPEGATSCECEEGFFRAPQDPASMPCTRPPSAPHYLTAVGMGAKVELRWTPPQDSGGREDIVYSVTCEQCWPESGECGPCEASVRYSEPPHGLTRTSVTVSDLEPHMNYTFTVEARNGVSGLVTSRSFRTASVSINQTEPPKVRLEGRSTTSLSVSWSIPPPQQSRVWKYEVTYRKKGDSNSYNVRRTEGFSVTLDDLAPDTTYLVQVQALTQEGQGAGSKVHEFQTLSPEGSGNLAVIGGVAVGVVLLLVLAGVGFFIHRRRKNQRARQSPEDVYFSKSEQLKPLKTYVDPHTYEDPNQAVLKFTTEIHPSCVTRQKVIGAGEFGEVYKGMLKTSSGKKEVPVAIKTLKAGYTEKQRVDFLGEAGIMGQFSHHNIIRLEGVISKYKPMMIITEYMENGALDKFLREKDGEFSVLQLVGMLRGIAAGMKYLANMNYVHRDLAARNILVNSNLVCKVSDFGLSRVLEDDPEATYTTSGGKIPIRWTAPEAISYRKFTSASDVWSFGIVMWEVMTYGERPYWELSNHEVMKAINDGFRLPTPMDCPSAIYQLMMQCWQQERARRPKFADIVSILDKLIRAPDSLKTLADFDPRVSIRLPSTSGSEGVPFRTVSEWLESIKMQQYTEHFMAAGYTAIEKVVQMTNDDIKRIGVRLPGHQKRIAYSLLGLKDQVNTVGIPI
T2 sequence (P29317 24-537): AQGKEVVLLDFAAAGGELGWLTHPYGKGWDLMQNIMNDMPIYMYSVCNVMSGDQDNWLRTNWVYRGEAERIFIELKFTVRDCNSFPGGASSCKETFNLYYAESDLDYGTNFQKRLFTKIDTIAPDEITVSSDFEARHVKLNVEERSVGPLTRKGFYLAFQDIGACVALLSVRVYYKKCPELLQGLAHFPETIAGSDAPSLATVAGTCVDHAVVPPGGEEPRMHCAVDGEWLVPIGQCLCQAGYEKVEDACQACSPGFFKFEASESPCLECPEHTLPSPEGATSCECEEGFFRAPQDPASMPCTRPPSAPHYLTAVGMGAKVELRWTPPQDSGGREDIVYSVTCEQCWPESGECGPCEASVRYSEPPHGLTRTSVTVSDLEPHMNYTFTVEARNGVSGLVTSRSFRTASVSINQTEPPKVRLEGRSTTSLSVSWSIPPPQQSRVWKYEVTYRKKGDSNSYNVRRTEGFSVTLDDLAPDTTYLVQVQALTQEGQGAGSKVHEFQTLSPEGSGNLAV

B1: recombinant EBP from CHO cells transfected with the EBP gene (ligand)
chain: DRHTVFWNSSNPKFRNEDYTIHVQLNDYVDIICPHYEDHSVADAAMEQYILYLVEHEEYQLCQPQSKDQVRWQCNRPSAKHGPEKLSEKFQRFTPFTLGKEFKEGHSYYYISKPIHQHEDRCLRLKVTVSGKITHSPQAHVNPQEKRLAA
notes: the entry may begin with a leader at negative positions; also called CHO rEBP; rEBP
As usually defined, the Kd is the constant that tells how readily two partners part at equilibrium. As for B1, in the experiment with rat Eck receptor (rat), the ED50 of survival of embryonic rat spinal cord neurons after 9 days in culture was under 10 µg/mL and the enhancement of survival of embryonic rat spinal cord neurons after 9 days in culture is under 84%. The molecule further yielded a Kd in experiment [1] of 28 nM. In experiment [2], this molecule gave a Kd of about 24 nM.
